Consider 40 molecules from patent US20140356358A1 (Amgen, published 2014).

For assay [1], the target named is T1, human neonatal Fc receptor (hFcRn) (human, UniProt P55899 24-290; P61769 21-119).
T1 construct: Biotinylated in the ELISA, Octet and yeast assays; also called human FcRn; huFcRn
As to the kind of experiment: phage ELISA pH 7.4. On the procedure: (§1) Approximately 100 μL of biotinylated human FcRn at 2 μg/mL was added to the wells of MAXISORP™ plates coated with 10 μg/mL streptavidin. After washing with PBS plus 0.05% Tween 20 (PBST) five times, phage from the overnight cultures in MES buffer at pH 6.0 or pH 7.4 were added to the plates and incubated at room temperature for 1 hr. A horseradish peroxidase (HRP)-conjugated anti-M13 antibody was used to detect the binding phage, and the plates were scored by a microtiter plate reader using a wavelength in the visible range.
(§2) Binding was assessed by a quantitative enzyme-linked immunoadsorbent assay (ELISA). The ELISA scores reflect binding affinity, with higher scores meaning higher affinity. Typically, scores higher than about 3˜5 indicate binding above background. For library L5, the insertions are between the N169 and G170 according to the numbering in FIG. 2. For libraries 6A and 6B, the insertions are between L143 and T144 according to the numbering in FIG. 2.
(In general: An ELISA detects its analyte on a solid surface through an enzyme-linked reagent.)

Assay [2] has as its target T1, human neonatal Fc receptor (hFcRn). The assay is described as follows: phage ELISA pH 6. On the procedure: as §1, §2

Residue numbers refer to the chain shown, from its start. In names and notes the source's numbering stands.
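Note: higher score means stronger binding and above about 3 to 5 exceeds background.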

T1 sequence (P55899 24-290 limits assumed, chain 1 of 2): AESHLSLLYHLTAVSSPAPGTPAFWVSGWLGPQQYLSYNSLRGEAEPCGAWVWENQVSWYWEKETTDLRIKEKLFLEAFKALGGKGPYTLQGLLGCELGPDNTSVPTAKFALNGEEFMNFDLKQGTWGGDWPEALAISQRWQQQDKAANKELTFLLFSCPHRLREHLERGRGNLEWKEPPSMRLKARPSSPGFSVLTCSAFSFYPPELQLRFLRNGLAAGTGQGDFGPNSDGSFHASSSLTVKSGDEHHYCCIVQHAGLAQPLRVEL
T1 sequence (P61769 21-119 limits assumed, chain 2 of 2): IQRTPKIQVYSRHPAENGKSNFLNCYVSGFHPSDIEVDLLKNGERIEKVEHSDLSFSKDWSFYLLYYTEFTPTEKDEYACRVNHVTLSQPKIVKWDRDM

B1: L6B isolate with insertion SEQ ID NO: 455 (other)
chain: EPKSCDKTHTCPPCPAPELLGGPSVFLFPPKPKDTLMISRTPEVTCVVVDVSHEDPEVKFNWYVDGVEVHNAKTKPREEQYNSTYRVVSVLTVLHQDWLNGKEYKCKVSNKALPAPIEKTISKAKGQPREPQVYTLPPSRDELGGCVSAATSRTCGGTKNQVSLTCLVKGFYPSDIAVEWESNGQPENNYKTTPPVLDSDGSFFLYSKLTVDKSRWQQGNVFSCSVMHEALHNHYTQKSLSLSPGK
On to B1, for which the ELISA score in assay [1] is 0.3.

B2: L5 isolate with insertion SEQ ID NO: 392 (other)
chain: EPKSCDKTHTCPPCPAPELLGGPSVFLFPPKPKDTLMISRTPEVTCVVVDVSHEDPEVKFNWYVDGVEVHNAKTKPREEQYNSTYRVVSVLTVLHQDWLNGKEYKCKVSNKALPAPIEKTISKAKGQPREPQVYTLPPSRDELTKNQVSLTCLVKGFYPSDIAVEWESNGGCPHMFPWCGGGQPENNYKTTPPVLDSDGSFFLYSKLTVDKSRWQQGNVFSCSVMHEALHNHYTQKSLSLSPGK
Take B2: the ELISA score in assay [2] turned out to be 95.1; in assay [1], 15.1.

B3: L5 isolate with insertion SEQ ID NO: 423 (other)
chain: B2 chain with P173N, M175E, F176E, P177T, W178F
Regarding B3, the ELISA score in assay [2] worked out at 60.2; in assay [1], 0.4.

B4: L5 isolate with insertion SEQ ID NO: 398 (other)
chain: B2 chain with P173Q, H174L, M175G, F176S, P177M, W178H
On to B4, for which the ELISA score in assay [2] worked out at 86.5; in assay [1], 0.4.

B5: L5 isolate with insertion SEQ ID NO: 416 (other)
chain: B2 chain with P173E, H174T, M175H, F176Y, P177T, W178Y
Turning to B5, the values for the ELISA score in assay [2] and in assay [1] were 63 and 0.5, respectively.

B6: L5 isolate with insertion SEQ ID NO: 419 (other)
chain: B2 chain with P173Q, H174N, M175R, F176S, P177Y
B6: the ELISA score in assay [2] was determined as 61; in assay [1] it was 0.3.

B7: L5 isolate with insertion SEQ ID NO: 396 (other)
chain: B2 chain with P173R, H174E, M175P, F176H, W178F
With B7, the values for the ELISA score in assay [2] and in assay [1] were 88.6 and 8.9, respectively.

B8: L5 isolate with insertion SEQ ID NO: 406 (other)
chain: B2 chain with P173Y, H174Q, M175H, F176H, P177M, W178E
Turning to B8, the results for the ELISA score in assay [2] and in assay [1] were 73.1 and 0.4, respectively.

B9: L5 isolate with insertion SEQ ID NO: 395 (other)
chain: B2 chain with P173I, H174L, M175N, P177Y, W178G
For B9, the ELISA score in assay [2] was found to be 89.5; in assay [1], 23.5.

B10: L5 isolate with insertion SEQ ID NO: 393 (other)
chain: B2 chain with P173G, M175G, F176W, P177I, W178F
As to B10, the ELISA score in assay [2] is 92.1; in assay [1], 28.4.

B11: L5 isolate with insertion SEQ ID NO: 421 (other)
chain: B2 chain with P173N, H174P, M175H, F176R, P177T, W178P
Consider B11, for which the values for the ELISA score in assay [2] and in assay [1] were 60.9 and 0.3, respectively.

B12: L5 isolate with insertion SEQ ID NO: 404 (other)
chain: B2 chain with P173M, H174M, M175E, P177A, W178Q
B12: the ELISA score in assay [2] is 74.2; in assay [1], 2.3.

B13: L5 isolate with insertion SEQ ID NO: 426 (other)
chain: B2 chain with P173M, H174Q, M175P, F176W, P177I, W178N
Take B13: the ELISA score in assay [2] is 59.2; in assay [1], 0.3.

B14: L5 isolate with insertion SEQ ID NO: 418 (other)
chain: B2 chain with P173I, H174T, M175E, P177S, W178H
For B14, the ELISA score worked out at 61.2 in assay [2] and 0.4 in assay [1].

B15: L5 isolate with insertion SEQ ID NO: 422 (other)
chain: B2 chain with P173Q, M175S, F176P, W178L
Regarding B15, the figures for the ELISA score in assay [2] and in assay [1] were 60.3 and 0.3, respectively.

B16: L5 isolate with insertion SEQ ID NO: 403 (other)
chain: B2 chain with H174A, M175N, F176W, P177G, W178T
As for B16, the figures for the ELISA score in assay [2] and in assay [1] were 74.8 and 0.5, respectively.

B17: L5 isolate with insertion SEQ ID NO: 408 (other)
chain: B2 chain with P173Q, H174K, M175G, F176W, P177V, W178F
As for B17, the ELISA score was 72 in assay [2] and 0.4 in assay [1].

B18: L5 isolate with insertion SEQ ID NO: 402 (other)
chain: B2 chain with P173E, H174L, M175Q, F176E, P177R
For the molecule B18, the ELISA score is 75.5 in assay [2] and 0.3 in assay [1].

B19: L5 isolate with insertion SEQ ID NO: 428 (other)
chain: B2 chain with P173E, H174M, M175E, F176N, P177A
On to B19, for which the ELISA score in assay [2] worked out at 58.5; in assay [1], 0.5.

B20: L5 isolate with insertion SEQ ID NO: 399 (other)
chain: B2 chain with P173Y, H174E, M175N, F176K, P177T, W178L
For B20, the results for the ELISA score in assay [2] and in assay [1] were 86.3 and 1.6, respectively.

B21: L5 isolate with insertion SEQ ID NO: 409 (other)
chain: B2 chain with P173V, H174Y, M175D, F176V, P177K, W178K
B21: the ELISA score in assay [2] was 71.2; in assay [1], 0.7.

B22: L5 isolate with insertion SEQ ID NO: 442 (other)
chain: B2 chain with P173N, H174V, M175L, F176D, P177L, W178F
For the molecule B22, the ELISA score in assay [1] is 0.3.

B23: L5 isolate with insertion SEQ ID NO: 424 (other)
chain: B2 chain with P173Q, H174Y, M175P, F176R, P177K, W178L
As to B23, the ELISA score in assay [2] was 59.6; in assay [1], 0.3.

B24: L5 isolate with insertion SEQ ID NO: 407 (other)
chain: B2 chain with P173M, H174V, M175P, P177S, W178M
For the molecule B24, the ELISA score in assay [1] is 0.6.

B25: L5 isolate with insertion SEQ ID NO: 417 (other)
chain: B2 chain with P173T, H174E, M175Q, F176V, P177M
For B25, the ELISA score in assay [2] stood at 62.2; in assay [1], 0.3.

B26: L5 isolate with insertion SEQ ID NO: 411 (other)
chain: B2 chain with P173N, H174M, M175L, F176W, P177G, W178S
Take B26: the figures for the ELISA score in assay [2] and in assay [1] were 68.6 and 0.6, respectively.

B27: L5 isolate with insertion SEQ ID NO: 432 (other)
chain: B2 chain with P173D, H174R, M175P, F176V, P177W, W178F
For the molecule B27, the ELISA score in assay [2] stood at 57.7; in assay [1], 0.5.

B28: L5 isolate with insertion SEQ ID NO: 397 (other)
chain: B2 chain with H174F, M175E, P177T, W178Q
As to B28, the results for the ELISA score in assay [2] and in assay [1] were 87.3 and 1.8, respectively.

B29: L5 isolate with insertion SEQ ID NO: 401 (other)
chain: B2 chain with P173M, H174V, M175P, P177S, W178M
The molecule B29 registered an ELISA score in assay [1] of 0.6.

B30: L5 isolate with insertion SEQ ID NO: 414 (other)
chain: B2 chain with P173V, H174N, M175T, F176W, P177W, W178S
For the molecule B30, the ELISA score in assay [2] stood at 65.2; in assay [1] it was 0.3.

B31: L5 isolate with insertion SEQ ID NO: 431 (other)
chain: B2 chain with P173N, H174E, M175P, F176K, P177Y, W178V
In the case of B31, the ELISA score in assay [2] came out at 57.7; in assay [1] it was 0.5.

B32: L5 isolate with insertion SEQ ID NO: 413 (other)
chain: B2 chain with P173M, H174T, M175Q, F176Y, P177N
Take B32: the ELISA score in assay [2] amounted to 65.6; in assay [1], 0.5.

B33: L5 isolate with insertion SEQ ID NO: 430 (other)
chain: B2 chain with P173H, H174D, M175P, F176E, W178F
As to B33, the ELISA score came out at 57.7 in assay [2] and 0.4 in assay [1].

B34: L5 isolate with insertion SEQ ID NO: 429 (other)
chain: B2 chain with H174P, M175W, F176P, P177E, W178R
With B34, the ELISA score in assay [2] amounted to 58.3; in assay [1], 0.3.

B35: L5 isolate with insertion SEQ ID NO: 415 (other)
chain: B2 chain with P173Y, H174I, M175T, F176Q, P177K, W178L
Regarding B35, the ELISA score was 63.6 in assay [2] and 0.7 in assay [1].

B36: L5 isolate with insertion SEQ ID NO: 412 (other)
chain: B2 chain with P173M, H174Q, M175P, F176W, P177A, W178F
Consider B36, for which the ELISA score in assay [2] came out at 67.4; in assay [1], 0.4.

B37: L5 isolate with insertion SEQ ID NO: 405 (other)
chain: B2 chain with P173Q, M175H, F176I, P177M, W178Q
As to B37, the results for the ELISA score in assay [2] and in assay [1] were 73.4 and 0.4, respectively.

B38: L5 isolate with insertion SEQ ID NO: 425 (other)
chain: B2 chain with P173I, H174G, M175P, P177W
Consider B38, for which the ELISA score amounted to 59.2 in assay [2] and 0.3 in assay [1].

B39: L5 isolate with insertion SEQ ID NO: 420 (other)
chain: B2 chain with P173H, H174G, M175T, F176K, P177Q, W178F
Regarding B39, the ELISA score stood at 61 in assay [2] and 0.5 in assay [1].

B40: L5 isolate with insertion SEQ ID NO: 437 (other)
chain: B2 chain with P173N, H174V, M175L, F176D, P177L, W178F
B40: in assay [1], the ELISA score is 0.3.
